Laboratory results reported in US20240376151A1, “STAPLED PEPTIDES AND METHODS THEREOF” (FOG PHARMACEUTICALS, INC., priority 2022, published 2024).
Each block holds one sequence with its values, some of them ahead of it.

Target: T1, RNF31 UBA domain (Homo sapiens, UniProt Q96EP0)
T1 construct: RNF31 UBA domain protein (residues 480-639) with N-terminal Thioredoxin-TEV-6×his-yBBr-3C tags; Thioredoxin (N, cleaved yes); made in house; host or cells: E. coli BL21 (DE3) pLysS
T1 sequence (Q96EP0 480-639): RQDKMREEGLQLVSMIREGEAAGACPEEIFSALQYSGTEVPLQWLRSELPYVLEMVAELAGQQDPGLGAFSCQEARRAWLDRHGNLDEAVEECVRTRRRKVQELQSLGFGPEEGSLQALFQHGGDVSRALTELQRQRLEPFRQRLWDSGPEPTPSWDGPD
Experiment: Phage Library Screening with NGS, RNF31 UBA domain
Type: binding
Settings: for Phage library screen NGS readout, Target Concentration 10 / Phage library screen NGS readout, Target Concentration 30 / Phage library screen NGS readout, Target Concentration 100 / Phage library screen NGS readout, Target Concentration 300 / Phage library screen NGS readout, Target Concentration 1000: RNF31 UBA domain cluster C46; for Phage library screen NGS readout, BLANK: cluster C46; for phage screen NGS read-out at Target Concentration 10 / phage screen NGS read-out at Target Concentration 30 / phage screen NGS read-out at Target Concentration 100 / phage screen NGS read-out at Target Concentration 300: no competitor

[1] = target concentration 1000, first column
[2] = target concentration 1000, second column

Sequence: DPAQQHCSAAAAWCVVL
phage screen NGS read-out at Target Concentration 10: 0
phage screen NGS read-out at Target Concentration 30: 0
phage screen NGS read-out at Target Concentration 100: 1
phage screen NGS read-out at Target Concentration 300: 10

Sequence: DPALSTCVYAAVMCQDV
phage screen NGS read-out at Target Concentration 10: 0
phage screen NGS read-out at Target Concentration 30: 0
phage screen NGS read-out at Target Concentration 100: 2
phage screen NGS read-out at Target Concentration 300: 4

Sequence: DPAFSMCVYAAVTCVST
phage screen NGS read-out at Target Concentration 10: 0
phage screen NGS read-out at Target Concentration 30: 0
phage screen NGS read-out at Target Concentration 100: 0
phage screen NGS read-out at Target Concentration 300: 4

Sequence: DPAFSTCIYAAVMCMDQ
phage screen NGS read-out at Target Concentration 10: 0
phage screen NGS read-out at Target Concentration 30: 0
phage screen NGS read-out at Target Concentration 100: 3
phage screen NGS read-out at Target Concentration 300: 19

Sequence: DPAFSTCVYAAIICNDT
phage screen NGS read-out at Target Concentration 10: 0
phage screen NGS read-out at Target Concentration 30: 0
phage screen NGS read-out at Target Concentration 100: 7
phage screen NGS read-out at Target Concentration 300: 29

Sequence: DPAITHCTAAAMWCHLL
phage screen NGS read-out at Target Concentration 10: 1
phage screen NGS read-out at Target Concentration 30: 0
phage screen NGS read-out at Target Concentration 100: 9
phage screen NGS read-out at Target Concentration 300: 80

Sequence: DPALTNCFSAAVYCAMF
Phage library screen NGS readout, Target Concentration 10: 8
Phage library screen NGS readout, Target Concentration 30: 39
Phage library screen NGS readout, Target Concentration 100: 131
Phage library screen NGS readout, Target Concentration 300: 239
Phage library screen NGS readout, Target Concentration 1000 [1]: 297
Phage library screen NGS readout, Target Concentration 1000 [2]: 291
Phage library screen NGS readout, BLANK (column 1 of 5): 0
Phage library screen NGS readout, BLANK (column 2 of 5): 1
Phage library screen NGS readout, BLANK (column 3 of 5): 1
Phage library screen NGS readout, BLANK (column 4 of 5): 0
Phage library screen NGS readout, BLANK (column 5 of 5): 0

Sequence: DPAQRQCLSAAVFCATL
Phage library screen NGS readout, Target Concentration 10: 3
Phage library screen NGS readout, Target Concentration 30: 24
Phage library screen NGS readout, Target Concentration 100: 137
Phage library screen NGS readout, Target Concentration 1000 [1]: 292
Phage library screen NGS readout, Target Concentration 1000 [2]: 319
Phage library screen NGS readout, BLANK (column 1 of 5): 0
Phage library screen NGS readout, BLANK (column 2 of 5): 1
Phage library screen NGS readout, BLANK (column 3 of 5): 1
Phage library screen NGS readout, BLANK (column 4 of 5): 0
Phage library screen NGS readout, BLANK (column 5 of 5): 1

Sequence: DPAFSQCVYAAWHCESL
phage screen NGS read-out at Target Concentration 10: 1
phage screen NGS read-out at Target Concentration 30: 0
phage screen NGS read-out at Target Concentration 100: 2
phage screen NGS read-out at Target Concentration 300: 7

Sequence: DPAFYECVYAAVTCTQF
phage screen NGS read-out at Target Concentration 10: 0
phage screen NGS read-out at Target Concentration 30: 0
phage screen NGS read-out at Target Concentration 100: 0
phage screen NGS read-out at Target Concentration 300: 2

Sequence: DPAHVHCQAAAQWCVLL
phage screen NGS read-out at Target Concentration 10: 0
phage screen NGS read-out at Target Concentration 30: 1
phage screen NGS read-out at Target Concentration 100: 1
phage screen NGS read-out at Target Concentration 300: 6

Sequence: DPADLLCHMAAQNCLYR
phage screen NGS read-out at Target Concentration 10: 1
phage screen NGS read-out at Target Concentration 30: 0
phage screen NGS read-out at Target Concentration 100: 0
phage screen NGS read-out at Target Concentration 300: 0

Sequence: DPAFSRCVYAAVACEDH
phage screen NGS read-out at Target Concentration 10: 0
phage screen NGS read-out at Target Concentration 30: 1
phage screen NGS read-out at Target Concentration 100: 3
phage screen NGS read-out at Target Concentration 300: 31

Sequence: DPAFSECVYAAFSCSWI
phage screen NGS read-out at Target Concentration 10: 1
phage screen NGS read-out at Target Concentration 30: 2
phage screen NGS read-out at Target Concentration 100: 3
phage screen NGS read-out at Target Concentration 300: 9

Sequence: DPAYEHCVAAAYWCYLL
phage screen NGS read-out at Target Concentration 10: 1
phage screen NGS read-out at Target Concentration 30: 0
phage screen NGS read-out at Target Concentration 100: 11
phage screen NGS read-out at Target Concentration 300: 30

Sequence: DPASIICMLAADNCLYE
phage screen NGS read-out at Target Concentration 10: 0
phage screen NGS read-out at Target Concentration 30: 0
phage screen NGS read-out at Target Concentration 100: 0
phage screen NGS read-out at Target Concentration 300: 0

Now from value to sequence:

Phage library screen NGS readout, Target Concentration 10: 2
Phage library screen NGS readout, Target Concentration 30: 9
Phage library screen NGS readout, Target Concentration 100: 68
Phage library screen NGS readout, Target Concentration 300: 106
Phage library screen NGS readout, Target Concentration 1000 [1]: 117
Phage library screen NGS readout, Target Concentration 1000 [2]: 118
Phage library screen NGS readout, BLANK (column 1 of 5): 0
Phage library screen NGS readout, BLANK (column 2 of 5): 1
Phage library screen NGS readout, BLANK (column 3 of 5): 2
Phage library screen NGS readout, BLANK (column 4 of 5): 0
Phage library screen NGS readout, BLANK (column 5 of 5): 1
Sequence: DPAVQSCLSAAVYCAFR

phage screen NGS read-out at Target Concentration 10: 0
phage screen NGS read-out at Target Concentration 30: 2
phage screen NGS read-out at Target Concentration 100: 0
phage screen NGS read-out at Target Concentration 300: 4
Sequence: DPALSQCVYAAVFCQNL

Phage library screen NGS readout, Target Concentration 10: 5
Phage library screen NGS readout, Target Concentration 30: 19
Phage library screen NGS readout, Target Concentration 100: 45
Phage library screen NGS readout, Target Concentration 300: 86
Phage library screen NGS readout, Target Concentration 1000 [1]: 88
Phage library screen NGS readout, Target Concentration 1000 [2]: 97
Phage library screen NGS readout, BLANK (column 1 of 5): 0
Phage library screen NGS readout, BLANK (column 2 of 5): 0
Phage library screen NGS readout, BLANK (column 3 of 5): 0
Phage library screen NGS readout, BLANK (column 4 of 5): 0
Phage library screen NGS readout, BLANK (column 5 of 5): 0
Sequence: DPAAQACLSAAVFCAWY

phage screen NGS read-out at Target Concentration 10: 0
phage screen NGS read-out at Target Concentration 30: 0
phage screen NGS read-out at Target Concentration 100: 1
phage screen NGS read-out at Target Concentration 300: 14
Sequence: DPAREHCDSAAIFCYIL

phage screen NGS read-out at Target Concentration 10: 0
phage screen NGS read-out at Target Concentration 30: 0
phage screen NGS read-out at Target Concentration 100: 0
phage screen NGS read-out at Target Concentration 300: 2
Sequence: DPALTHCTAAAYWCYVM

Phage library screen NGS readout, Target Concentration 10: 10
Phage library screen NGS readout, Target Concentration 30: 57
Phage library screen NGS readout, Target Concentration 100: 121
Phage library screen NGS readout, Target Concentration 300: 199
Phage library screen NGS readout, Target Concentration 1000 [1]: 201
Phage library screen NGS readout, Target Concentration 1000 [2]: 203
Phage library screen NGS readout, BLANK (column 1 of 5): 1
Phage library screen NGS readout, BLANK (column 2 of 5): 0
Phage library screen NGS readout, BLANK (column 3 of 5): 2
Phage library screen NGS readout, BLANK (column 4 of 5): 1
Phage library screen NGS readout, BLANK (column 5 of 5): 0
Sequence: DPAQRQCLSAAVWCATF

phage screen NGS read-out at Target Concentration 10: 0
phage screen NGS read-out at Target Concentration 30: 0
phage screen NGS read-out at Target Concentration 100: 1
phage screen NGS read-out at Target Concentration 300: 10
Sequence: DPAFSRCVYAAFTCQTF

phage screen NGS read-out at Target Concentration 10: 2
phage screen NGS read-out at Target Concentration 30: 0
phage screen NGS read-out at Target Concentration 100: 11
phage screen NGS read-out at Target Concentration 300: 55
Sequence: DPAFSQCVYAAVVCEVQ

phage screen NGS read-out at Target Concentration 10: 0
phage screen NGS read-out at Target Concentration 30: 1
phage screen NGS read-out at Target Concentration 100: 2
phage screen NGS read-out at Target Concentration 300: 13
Sequence: DPAEWLCQMAAHNCIYL

phage screen NGS read-out at Target Concentration 10: 0
phage screen NGS read-out at Target Concentration 30: 0
phage screen NGS read-out at Target Concentration 100: 2
phage screen NGS read-out at Target Concentration 300: 19
Sequence: DPAEYHCDAAAVWCYLM

phage screen NGS read-out at Target Concentration 10: 0
phage screen NGS read-out at Target Concentration 30: 0
phage screen NGS read-out at Target Concentration 100: 0
phage screen NGS read-out at Target Concentration 300: 3
Sequence: DPAFFTCVYAAVTCEMT

phage screen NGS read-out at Target Concentration 10: 0
phage screen NGS read-out at Target Concentration 30: 1
phage screen NGS read-out at Target Concentration 100: 1
phage screen NGS read-out at Target Concentration 300: 1
Sequence: DPAEWICEMAAHNCLYM
